Paper PMC6954185 (Nature Communications, 2020)

Columns and labels:
[1] = target: PTP-δ_D1D2 (human), Trx-His6-tagged (human); experiment: ITC; VP-ITC at 25 °C; 50 mM Tris-HCl pH 7.5, 100 mM NaCl, 1 mM EDTA, 1 mM DTT; liprin-α fragments at 200 μM injected into LAR-RPTP fragments at 20 μM; one-site binding model; N-terminal tags kept
[2] = target: PTP-σ_D1D2 (human), Trx-His6-tagged (human); experiment: as above
[3] = target: the molecule itself; experiment: cell-based or functional assay
[4] = target: T1, liprin-α2_SAM123 (C-terminal SAM repeats of human liprin-α2), Trx-His6-tagged (human, UniProt O75334 866-1193); experiment: ITC; VP-ITC at 25 °C; 50 mM Tris-HCl pH 7.5, 100 mM NaCl, 1 mM EDTA, 1 mM DTT; liprin-α fragments at 200 μM injected into LAR-RPTP fragments at 20 μM; one-site binding model; N-terminal tags kept; details: both partners purified
T1 construct: liprin-α2, human, the C-terminal three SAM domains (SAM123); source: E. coli Rosetta BL21(DE3), purified (Ni-NTA, Superdex-200); not shown: Trx, N-terminal, kept; His6, N-terminal, kept
T1 sequence (O75334 866-1193): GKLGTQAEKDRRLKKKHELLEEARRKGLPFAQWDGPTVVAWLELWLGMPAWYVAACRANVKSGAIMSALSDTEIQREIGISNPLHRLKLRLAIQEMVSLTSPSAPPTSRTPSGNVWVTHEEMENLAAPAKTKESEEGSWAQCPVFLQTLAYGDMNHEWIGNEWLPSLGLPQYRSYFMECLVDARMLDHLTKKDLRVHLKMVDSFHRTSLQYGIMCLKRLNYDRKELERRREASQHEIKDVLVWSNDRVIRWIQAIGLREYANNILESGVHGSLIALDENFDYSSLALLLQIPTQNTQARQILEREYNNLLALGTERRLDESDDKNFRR

PTP-σ_D1D2 (human), Trx-His6-tagged (human), sequence (Q13332 1393-1948): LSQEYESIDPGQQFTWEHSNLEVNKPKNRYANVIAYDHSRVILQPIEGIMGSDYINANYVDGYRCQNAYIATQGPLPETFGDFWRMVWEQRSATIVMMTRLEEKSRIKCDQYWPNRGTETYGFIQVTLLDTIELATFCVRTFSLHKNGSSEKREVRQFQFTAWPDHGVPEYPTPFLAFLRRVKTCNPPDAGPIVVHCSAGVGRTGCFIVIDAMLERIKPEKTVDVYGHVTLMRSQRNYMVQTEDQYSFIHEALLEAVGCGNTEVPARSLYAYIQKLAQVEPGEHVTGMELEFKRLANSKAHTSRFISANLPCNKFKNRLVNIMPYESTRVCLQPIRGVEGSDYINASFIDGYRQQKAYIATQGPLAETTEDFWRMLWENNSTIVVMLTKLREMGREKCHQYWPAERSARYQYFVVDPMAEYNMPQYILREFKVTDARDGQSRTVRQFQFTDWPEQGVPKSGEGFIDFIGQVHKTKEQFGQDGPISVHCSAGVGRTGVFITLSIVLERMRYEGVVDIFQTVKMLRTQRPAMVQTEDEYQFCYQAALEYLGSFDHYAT
PTP-δ_D1D2 (human), Trx-His6-tagged (human), sequence (P23468 1357-1912, stated change not applied): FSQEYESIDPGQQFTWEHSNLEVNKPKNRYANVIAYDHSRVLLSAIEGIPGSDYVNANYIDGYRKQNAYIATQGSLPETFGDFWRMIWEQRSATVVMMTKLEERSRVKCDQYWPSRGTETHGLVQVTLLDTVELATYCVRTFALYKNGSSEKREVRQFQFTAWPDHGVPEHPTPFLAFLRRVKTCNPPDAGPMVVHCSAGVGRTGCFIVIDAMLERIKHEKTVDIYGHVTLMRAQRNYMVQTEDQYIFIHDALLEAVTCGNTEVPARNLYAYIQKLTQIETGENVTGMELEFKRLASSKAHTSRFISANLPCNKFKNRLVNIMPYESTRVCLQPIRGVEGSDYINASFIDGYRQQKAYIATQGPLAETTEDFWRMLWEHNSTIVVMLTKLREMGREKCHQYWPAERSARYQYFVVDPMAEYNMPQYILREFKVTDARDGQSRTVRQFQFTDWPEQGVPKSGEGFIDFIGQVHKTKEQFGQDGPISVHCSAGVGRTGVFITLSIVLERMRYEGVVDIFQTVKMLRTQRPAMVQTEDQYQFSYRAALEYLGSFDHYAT

“α2_SAM123ΔInsertion (liprin-α2_SAM123 with the insertion loop connecting SAM1 and SAM2 deleted) (from UniProt O75334 866-1193) (domain or fragment)” showed a Kd [1] of 6.4 µM and a Kd [2] of 2.4 µM.

B1: LAR_D1D2 L1539C/T1593C double-cysteine mutant (domain or fragment, human)
chain: IPITDLADNIERLKANDGLKFSQEYESIDPGQQFTWENSNLEVNKPKNRYANVIAYDHSRVILTSIDGVPGSDYINANYIDGYRKQNAYIATQGPLPETMGDFWRMVWEQRTATVVMMTRLEEKSRVKCDQYWPARGTETCGLIQVTLLDTVELATYTVRTFALHKSGSSEKRELRQFQFMAWPDHGVPEYPTPILAFLRRVKACNPCDAGPMVVHCSAGVGRTGCFIVIDAMLERMKHEKTVDIYGHVTCMRSQRNYMVQCEDQYVFIHEALLEAATCGHTEVPARNLYAHIQKLGQVPPGESVTAMELEFKLLASSKAHTSRFISANLPCNKFKNRLVNIMPYELTRVCLQPIRGVEGSDYINASFLDGYRQQKAYIATQGPLAESTEDFWRMLWEHNSTIIVMLTKLREMGREKCHQYWPAERSARYQYFVVDPMAEYNMPQYILREFKVTDARDGQSRTIRQFQFTDWPEQGVPKTGEGFIDFIGQVHKTKEQFGQDGPITVHCSAGVGRTGVFITLSIVLERMRYEGVVDMFQTVKTLRTQRPAMVQTEDQYQLCYRAALEYLGSFDHYAT
modifications: intermolecular disulfide bridges between the introduced cysteines (without reducing reagents)
For B1, the “in vitro phosphatase activity of the LAR_D1D2 dimer relative to the monomer fraction, with 2 mM DTT in the reaction buffer” value [3] was about 80% and the “in vitro phosphatase activity of the disulfide-linked LAR_D1D2 dimer relative to the monomeric mutant, reaction buffer without DTT” value [3] was about 40%.

B2: LAR_D2 (D2 domain of human LAR), His6-SUMO-tagged (domain or fragment, UniProt P10586 1620-1907, looked up)
chain: LYAHIQKLGQVPPGESVTAMELEFKLLASSKAHTSRFISANLPCNKFKNRLVNIMPYELTRVCLQPIRGVEGSDYINASFLDGYRQQKAYIATQGPLAESTEDFWRMLWEHNSTIIVMLTKLREMGREKCHQYWPAERSARYQYFVVDPMAEYNMPQYILREFKVTDARDGQSRTIRQFQFTDWPEQGVPKTGEGFIDFIGQVHKTKEQFGQDGPITVHCSAGVGRTGVFITLSIVLERMRYEGVVDMFQTVKTLRTQRPAMVQTEDQYQLCYRAALEYLGSFDHYAT
notes: also called D2 domain alone; source: E. coli Rosetta BL21(DE3), purified (Ni-NTA, Superdex-200); not shown: His6, N-terminal, kept; SUMO, N-terminal, kept
For B2, the Kd [4] was 14 ± 1 µM.
